B1: Hypoxia-inducible factor prolyl hydroxylase (Caenorhabditis elegans), G5EBV0 (parent)
chain: MSSAPNDDCEIDKGTPSTASLFTTLMLSQPSSSTAVLQCTYCGSSCTSSQLQTCLFCGTVAYCSKEHQQLDWLTHKMICKSLQTSGMVPSNLMPQAAPAVMAPIPPTVSFDDPALTTSLLLSLQNNPILNQTISNFPPTFSITSKTEPEPSIPIQIPQRISSTSTVPFSSEGSAFKPYRNTHVFNSISSESMSSMCTSHEASLEHMSSASLAMFPTSSTAQSDISRLAQVLSLAGDSPASLALVTTSVPSTASTATIPPPATTTSSATSSGKSETITVGKEKIIQTDDPDIQIIETEGGSKPTVSRTRKRPTPSNSADPKINYKDHNKNVVYSTTLQEHQKHLQNRGLALSIHQAMVLRLRYIAEHVIRSLNEFGWAVVDNFLGSDHYKFTAKEIERLYERGLFSPGQLMEAKHKDEFHIKDIRSDHIYWYDGYDGRAKDAATVRLLISMIDSVIQHFKKRIDHDIGGRSRAMLAIYPGNGTRYVKHVDNPVKDGRCITTIYYCNENWDMATDGGTLRLYPETSMTPMDIDPRADRLVFFWSDRRNPHEVMPVFRHRFAITIWYMDKSERDKALAKGKESDAACASKKENDPTSSSLNSLIGSLLRPRKNPSTHDLSKLDLRLFPSTSSDPALVSAADEDRVDISADFQSTSSLAHPESTDSGVSLSTFNVAHNHMERTTSLQSISDHFRSERSHERRSSTSSDQDLDEGLPPPPSTNPEYYI
partner: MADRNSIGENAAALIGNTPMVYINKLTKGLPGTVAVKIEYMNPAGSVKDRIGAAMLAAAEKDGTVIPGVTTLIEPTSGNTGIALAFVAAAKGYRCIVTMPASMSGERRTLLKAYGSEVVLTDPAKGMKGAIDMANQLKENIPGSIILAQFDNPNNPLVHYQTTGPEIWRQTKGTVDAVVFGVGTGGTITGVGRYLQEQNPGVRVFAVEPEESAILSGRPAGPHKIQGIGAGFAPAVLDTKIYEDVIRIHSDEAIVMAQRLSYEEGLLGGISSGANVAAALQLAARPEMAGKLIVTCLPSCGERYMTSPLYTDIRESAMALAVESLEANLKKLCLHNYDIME

Variants of: B1
Conditions: with cysk1_caeel cysl-1, Q93244

Variant | effect of a mutation on the interaction
I723A | decreasing interaction strength
E720K | decreasing interaction strength

Variants of: B1
Conditions: with cysk1_caeel cysl-1, Q93244
Remark: another data set of the same source

Variant | effect of a mutation on the interaction
E720K | disrupting interaction strength

From IntAct's records for PubMed 22405203
